Results reported in patent US20210347873A1 (SHANGHAI PHARMAEXPLORER, published 2021).

Tests used:
[1] = target: hBLyS-ECD (His-tagged extracellular domain of human BLyS protein, Ala134-Leu285) (human, UniProt Q9Y275 134-285); experiment: cell-based or functional assay
mouse BLyS protein = mouse BLyS protein (mouse, UniProt Q9WU72 69-309); experiment: cell-based or functional assay
[2] = target: T1, human BLyS (full length, arginine to histidine at position 132) on CHO-K1 cells (human, UniProt Q9Y275 1-285); experiment: flow cytometry, CHO-K1 hBLyS cells, antibody 0 nM
T1 construct: also called hBLyS; CHO-K1 hBLyS
Procedure: (§1) The medium was aspirated completely, and the cells were rinsed once with PBS buffer (purchased from Invitrogen) and then treated with cell dispersion solution (TrypLE™ Express Enzyme, purchased from Life technology) and collected. The detailed steps are as follows: the cells were rinsed once with PBS buffer, after counting, the cells were diluted to 2×10⁶ cells/ml with PBS buffer, blocked with 2% (w/w) fetal bovine serum and incubated on ice for 30 minutes. 200 μL of which per well was aliquoted into a 96-well FACS plate and centrifuged at 2000 rpm at 4° C., then each 100 μL of the lead antibodies obtained from Embodiment 1 and 2 were aliquoted into each well and incubated on ice for 1 hour. […] After centrifuged and rinsed 3 times with FACS buffer, cells were suspended with 200 μL of FACS buffer and the results were detected and analyzed by FACS (FACS Calibur, purchased from BD). It was shown in Tables 12-13 that the lead antibody could bind to human BLyS protein on the cell surface and the lead antibody could cross-react with cynomolgus BLyS. The data in the table is MFI, the average fluorescence intensity of the cell population.

[3] = target: T1, human BLyS (full length, arginine to …); experiment: flow cytometry, CHO-K1 hBLyS cells, antibody 13.3 nM
Procedure: as §1

[4] = target: T1, human BLyS (full length, arginine to …); experiment: flow cytometry, CHO-K1 hBLyS cells, antibody 2.67 nM
Procedure: as §1

[5] = target: T1, human BLyS (full length, arginine to …); experiment: flow cytometry, CHO-K1 hBLyS cells, antibody 66.7 nM
Procedure: as §1

[6] = target: T2, cynomolgus BLyS (full length, arginine to histidine at position 132) on CHO-K1 cells (cynomolgus, UniProt Q9Y275 1-285 (human entry)); experiment: flow cytometry, CHO-K1 cynoBLyS cells, antibody 0 nM
T2 construct: also called cyno BLyS; CHO-K1 cynoBLyS
T2 chain: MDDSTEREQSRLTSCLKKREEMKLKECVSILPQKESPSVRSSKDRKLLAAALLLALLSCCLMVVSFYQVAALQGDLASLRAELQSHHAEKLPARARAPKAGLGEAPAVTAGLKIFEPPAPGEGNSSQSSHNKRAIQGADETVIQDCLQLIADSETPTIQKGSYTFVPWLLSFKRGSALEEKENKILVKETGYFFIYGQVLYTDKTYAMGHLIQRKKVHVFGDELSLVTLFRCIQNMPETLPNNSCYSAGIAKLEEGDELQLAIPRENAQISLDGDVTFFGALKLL
Procedure: as §1

[7] = target: T1, human BLyS (full length, arginine to …); experiment: flow cytometry, CHO-K1 hBLyS cells, antibody 0.107 nM
Procedure: as §1

[8] = target: T1, human BLyS (full length, arginine to …); experiment: flow cytometry, CHO-K1 hBLyS cells, antibody 0.534 nM
Procedure: as §1

[9] = target: T1, human BLyS (full length, arginine to …); experiment: flow cytometry, CHO-K1 hBLyS cells, antibody 0.0213 nM
Procedure: as §1

[10] = target: T1, human BLyS (full length, arginine to …); experiment: flow cytometry, CHO-K1 hBLyS cells, antibody 0.00427 nM
Procedure: as §1

[11] = target: T2, cynomolgus BLyS (full length, arginine …); experiment: flow cytometry, CHO-K1 cynoBLyS cells, antibody 13.3 nM
Procedure: as §1

[12] = target: T2, cynomolgus BLyS (full length, arginine …); experiment: flow cytometry, CHO-K1 cynoBLyS cells, antibody 2.67 nM
Procedure: as §1

[13] = target: T2, cynomolgus BLyS (full length, arginine …); experiment: flow cytometry, CHO-K1 cynoBLyS cells, antibody 66.7 nM
Procedure: as §1

[14] = target: T2, cynomolgus BLyS (full length, arginine …); experiment: flow cytometry, CHO-K1 cynoBLyS cells, antibody 0.107 nM
Procedure: as §1

[15] = target: T2, cynomolgus BLyS (full length, arginine …); experiment: flow cytometry, CHO-K1 cynoBLyS cells, antibody 0.534 nM
Procedure: as §1

[16] = target: T2, cynomolgus BLyS (full length, arginine …); experiment: flow cytometry, CHO-K1 cynoBLyS cells, antibody 0.0213 nM
Procedure: as §1

[17] = target: T2, cynomolgus BLyS (full length, arginine …); experiment: flow cytometry, CHO-K1 cynoBLyS cells, antibody 0.00427 nM
Procedure: as §1

[18] = target: T3, human BLyS (full length, arginine 132 mutated to histidine) on CHO-K1 cells (human, UniProt Q9Y275 1-285); experiment: flow cytometry (FACS) on CHO-K1 hBLyS cells, Alexa 488 secondary antibody
T3 construct: also called hBLyS; CHO-K1 hBLyS
Procedure: as §1

[19] = target: T4, cynomolgus BLyS (full length, arginine 132 mutated to histidine) on CHO-K1 cells (cynomolgus, UniProt Q9Y275 1-285 (human entry)); experiment: flow cytometry (FACS) on CHO-K1 cynoBLyS cells, Alexa 488 secondary antibody
T4 construct: also called cyno BLyS; CHO-K1 cynoBLyS
T4 chain: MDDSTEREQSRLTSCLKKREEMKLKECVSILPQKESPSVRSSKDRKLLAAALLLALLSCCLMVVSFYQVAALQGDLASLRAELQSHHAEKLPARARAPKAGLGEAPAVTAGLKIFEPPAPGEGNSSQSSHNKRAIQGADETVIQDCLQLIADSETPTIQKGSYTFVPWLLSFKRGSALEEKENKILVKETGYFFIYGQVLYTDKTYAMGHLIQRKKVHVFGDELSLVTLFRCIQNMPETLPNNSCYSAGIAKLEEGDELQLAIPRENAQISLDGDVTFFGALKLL
Procedure: as §1

Chain of mouse BLyS protein (Q9WU72 69-309): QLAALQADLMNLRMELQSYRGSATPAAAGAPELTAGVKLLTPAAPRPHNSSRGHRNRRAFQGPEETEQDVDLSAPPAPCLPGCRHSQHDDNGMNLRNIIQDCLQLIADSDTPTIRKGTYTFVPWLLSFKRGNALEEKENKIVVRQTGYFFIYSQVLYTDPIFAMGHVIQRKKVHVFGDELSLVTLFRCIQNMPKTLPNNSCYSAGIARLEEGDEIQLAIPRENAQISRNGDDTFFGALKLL
T3 sequence (Q9Y275 other isoform, or with tags, fused parts or gaps limits assumed, change not shown): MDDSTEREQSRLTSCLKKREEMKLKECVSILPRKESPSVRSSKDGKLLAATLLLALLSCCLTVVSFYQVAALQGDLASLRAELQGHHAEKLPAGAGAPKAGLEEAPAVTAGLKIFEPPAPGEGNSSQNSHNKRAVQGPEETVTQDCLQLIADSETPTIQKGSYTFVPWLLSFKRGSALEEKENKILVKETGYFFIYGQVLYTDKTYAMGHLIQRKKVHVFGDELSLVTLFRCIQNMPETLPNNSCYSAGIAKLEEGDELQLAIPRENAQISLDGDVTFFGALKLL

B1: 93C6F10D3 (antibody, V domains shown)
VH: EVQLVESGGGLVTPGGSLKLSCVASGFAFSTYGMSWVRQTPERRLEWVAYISGGGGSIYYPDSVKGRFTISRDNAKNILYLQMSSLKSEDTAMYHCTRHPDLLLRYDYALDHWGQGTSVTVSS
VL: DIQMTQSPASLSASVGETVTITCRASENIHIYLAWYQQKQGKSPQLLVYNGKTLADGVPSRFSGSGSGTQYSLKINTLQPEDFGNYYCQHFWNSTWTFGGGTKLEIK
notes: Mouse hybridoma monoclonal antibody purified on Protein G
- mouse B lymphocyte proliferation (OD450 nm), antibody 0 nM [1]: 3030 OD450 nm
- mouse B lymphocyte proliferation (OD450 nm), antibody 0.000256 nM [1]: 3420 OD450 nm
- mouse B lymphocyte proliferation (OD450 nm), antibody 0.00128 nM [1]: 3550 OD450 nm
- mouse B lymphocyte proliferation (OD450 nm), antibody 0.0064 nM [1]: 4050 OD450 nm
- mouse B lymphocyte proliferation (OD450 nm), antibody 0.032 nM [1]: 4360 OD450 nm
- mouse B lymphocyte proliferation (OD450 nm), antibody 0.16 nM [1]: 3530 OD450 nm
- mouse B lymphocyte proliferation (OD450 nm), antibody 0.8 nM [1]: 799 OD450 nm
- mouse B lymphocyte proliferation (OD450 nm), antibody 4 nM [1]: 514 OD450 nm
- mouse B lymphocyte proliferation (OD450 nm), antibody 20 nM [1]: 466 OD450 nm
- mouse B lymphocyte proliferation (OD450 nm), antibody 100 nM [1]: 416 OD450 nm
- mouse B lymphocyte proliferation (OD450 nm), antibody 0 nM (mouse BLyS protein): 2310 OD450 nm
- mouse B lymphocyte proliferation (OD450 nm), antibody 0.000256 nM (mouse BLyS protein): 2310 OD450 nm
- mouse B lymphocyte proliferation (OD450 nm), antibody 0.00128 nM (mouse BLyS protein): 2290 OD450 nm
- mouse B lymphocyte proliferation (OD450 nm), antibody 0.0064 nM (mouse BLyS protein): 2510 OD450 nm
- mouse B lymphocyte proliferation (OD450 nm), antibody 0.032 nM (mouse BLyS protein): 2540 OD450 nm
- mouse B lymphocyte proliferation (OD450 nm), antibody 0.16 nM (mouse BLyS protein): 2540 OD450 nm
- mouse B lymphocyte proliferation (OD450 nm), antibody 0.8 nM (mouse BLyS protein): 2530 OD450 nm
- mouse B lymphocyte proliferation (OD450 nm), antibody 4 nM (mouse BLyS protein): 2640 OD450 nm
- mouse B lymphocyte proliferation (OD450 nm), antibody 20 nM (mouse BLyS protein): 2620 OD450 nm
- mouse B lymphocyte proliferation (OD450 nm), antibody 100 nM (mouse BLyS protein): 2740 OD450 nm
- MFI [2]: 31.6 MFI
- MFI [3]: 327 MFI
- MFI [4]: 317 MFI
- MFI [5]: 392 MFI
- MFI [6]: 21.9 MFI
- MFI [7]: 175 MFI
- MFI [8]: 306 MFI
- MFI [9]: 76.6 MFI
- MFI [10]: 44.9 MFI
- MFI [11]: 714 MFI
- MFI [12]: 729 MFI
- MFI [13]: 785 MFI
- MFI [14]: 308 MFI
- MFI [15]: 706 MFI
- MFI [16]: 112 MFI
- MFI [17]: 46.9 MFI

B2: 20D1B6E9E5 (antibody, V domains shown)
VH: EVQLQQSVAELVRPGASVKLSCTASDFNIKNTYIHWVKQRPEQGLEWIGRIDPVNGNTKYAPKFQDKATIIVDTYSNTAYLQLSSLASEDTAVYYCARWPITTIVATDWYFDVWGTGTTVTVSS
VL: DVLMTQTQLALPVRLGEQASISCRSSQSIVNSNGNTYLEWYLQKPGQSPKLLIYKVSNRFSGVPDRFSGSGSGTDFTLKISRVEAEDLGVYYCFQGSHVPWTFGGGTKLEIK
notes: Mouse hybridoma antibody purified on Protein G
- EC50 (read off the curve) [18]: ~0.2 nM
- EC50 (read off the curve) [19]: ~0.2 nM

B3: 97E7B3F2 (antibody, V domains shown)
VH: EVQLQQSGPELVKSGASVKISCKASGYTFTDHKMHWVKQSHGKSLEWIGYISPYNGGTGYNQKFKSKVTLTVDISSSTAYMELRSLTSEDSAVYYCARWGFYDVMDSWGQGTSVTVSS
VL: DVLLTQTPLSLPVSLGDQASISCRSSQTIVHIIGDTYLEWYLQKPGQSPKLLIYKVSNRFSGVPDRFSGSGAGTDFTLKISRVEAEDLGVYYCFQGSHVPRTFGGGTKLEIK
notes: as for B1
- mouse B lymphocyte proliferation (OD450 nm), antibody 0 nM [1]: 2960 OD450 nm
- mouse B lymphocyte proliferation (OD450 nm), antibody 0.000256 nM [1]: 3380 OD450 nm
- mouse B lymphocyte proliferation (OD450 nm), antibody 0.00128 nM [1]: 3760 OD450 nm
- mouse B lymphocyte proliferation (OD450 nm), antibody 0.0064 nM [1]: 3770 OD450 nm
- mouse B lymphocyte proliferation (OD450 nm), antibody 0.032 nM [1]: 2940 OD450 nm
- mouse B lymphocyte proliferation (OD450 nm), antibody 0.16 nM [1]: 2990 OD450 nm
- mouse B lymphocyte proliferation (OD450 nm), antibody 0.8 nM [1]: 438 OD450 nm
- mouse B lymphocyte proliferation (OD450 nm), antibody 4 nM [1]: 364 OD450 nm
- mouse B lymphocyte proliferation (OD450 nm), antibody 20 nM [1]: 383 OD450 nm
- mouse B lymphocyte proliferation (OD450 nm), antibody 100 nM [1]: 377 OD450 nm
- mouse B lymphocyte proliferation (OD450 nm), antibody 0 nM (mouse BLyS protein): 2130 OD450 nm
- mouse B lymphocyte proliferation (OD450 nm), antibody 0.000256 nM (mouse BLyS protein): 2200 OD450 nm
- mouse B lymphocyte proliferation (OD450 nm), antibody 0.00128 nM (mouse BLyS protein): 2150 OD450 nm
- mouse B lymphocyte proliferation (OD450 nm), antibody 0.0064 nM (mouse BLyS protein): 2310 OD450 nm
- mouse B lymphocyte proliferation (OD450 nm), antibody 0.032 nM (mouse BLyS protein): 2580 OD450 nm
- mouse B lymphocyte proliferation (OD450 nm), antibody 0.16 nM (mouse BLyS protein): 2360 OD450 nm
- mouse B lymphocyte proliferation (OD450 nm), antibody 0.8 nM (mouse BLyS protein): 2310 OD450 nm
- mouse B lymphocyte proliferation (OD450 nm), antibody 4 nM (mouse BLyS protein): 2410 OD450 nm
- mouse B lymphocyte proliferation (OD450 nm), antibody 20 nM (mouse BLyS protein): 2290 OD450 nm
- mouse B lymphocyte proliferation (OD450 nm), antibody 100 nM (mouse BLyS protein): 2310 OD450 nm
- MFI [2]: 32.4 MFI
- MFI [3]: 349 MFI
- MFI [4]: 332 MFI
- MFI [5]: 406 MFI
- MFI [6]: 22.8 MFI
- MFI [7]: 174 MFI
- MFI [8]: 318 MFI
- MFI [9]: 78.7 MFI
- MFI [10]: 48.2 MFI
- MFI [11]: 710 MFI
- MFI [12]: 705 MFI
- MFI [13]: 770 MFI
- MFI [14]: 288 MFI
- MFI [15]: 688 MFI
- MFI [16]: 112 MFI
- MFI [17]: 53 MFI

B4: 97E7B3F2 (antibody, V domains shown)
VH: EVQLQQSGPELVKSGASVKISCKASGYTFTDHKMHWVKQSHGKSLEWIGYISPYNGGTGYNQKFKSKVTLTVDISSSTAYMELRSLTSEDSAVYYCARWGFYDVMDSWGQGTSVTVSS
VL: DVLLTQTPLSLPVSLGDQASISCRSSQTIVHIIGDTYLEWYLQKPGQSPKLLIYKVSNRFSGVPDRFSGSGAGTDFTLKISRVEAEDLGVYYCFQGSHVPRTFGGGTKLEIK
notes: as for B2
- EC50 (read off the curve) [18]: ~0.1 nM
- EC50 (read off the curve) [19]: ~0.1 nM
